Here are results for one substance from patent EP1007666B1.

For assay [1], the target named is rat NTNRα, endogenous on embryonic rat spinal motoneurons (rat). Description: cell-based or functional assay.
In assay [2] the target is recombinant soluble rat GDNFRα (rat) (UniProt Q62997). Description: binding experiments with biotinylated ligand, format not described.
Assay [3] shares this target. Description: displacement of labelled rGDNF from soluble GDNFRα by 10 nM unlabeled NTN.

Sequence of recombinant soluble rat GDNFRα (rat) (Q62997 25-430 limits assumed): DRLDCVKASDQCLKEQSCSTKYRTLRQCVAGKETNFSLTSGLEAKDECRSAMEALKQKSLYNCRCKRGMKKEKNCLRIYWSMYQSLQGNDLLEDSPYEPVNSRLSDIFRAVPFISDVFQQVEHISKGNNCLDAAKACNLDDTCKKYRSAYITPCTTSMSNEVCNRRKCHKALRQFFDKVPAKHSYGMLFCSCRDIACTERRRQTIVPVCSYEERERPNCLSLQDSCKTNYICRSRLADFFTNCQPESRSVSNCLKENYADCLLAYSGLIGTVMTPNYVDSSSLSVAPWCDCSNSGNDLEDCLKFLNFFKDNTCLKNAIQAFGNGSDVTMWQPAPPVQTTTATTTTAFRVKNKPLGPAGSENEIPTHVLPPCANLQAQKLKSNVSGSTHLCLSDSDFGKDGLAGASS

“Neurturin (NTN), species not stated at these places (ligand)” gave a survival of E14 rat spinal motoneurons at 72 hours in assay [1] of 50%. For the same substance, the values for the dissociation constant Kd in assay [2] and in assay [3] were greater than 1000 µM and 0.001 µM, respectively.

Broadly, the Kd is the free concentration of one partner at which half of the binding sites on the other are occupied at equilibrium, for simple one-to-one binding.
